The target of the experiment is biotinylated Apaf-1 CARD-LZ-Avi (UniProt O14727 1-137, biotin on the AviTag (BirA)). Kind of experiment: SPR.
Sequence of biotinylated Apaf-1 CARD-LZ-Avi (O14727 other isoform, or with tags, fused parts or gaps): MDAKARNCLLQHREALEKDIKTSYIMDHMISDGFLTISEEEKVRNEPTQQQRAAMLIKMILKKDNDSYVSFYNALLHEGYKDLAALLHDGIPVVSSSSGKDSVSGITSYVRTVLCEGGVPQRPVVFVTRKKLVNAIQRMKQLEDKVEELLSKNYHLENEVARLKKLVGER

B1: processed C9/8 chimera (enzyme)
chain 1: MDEADRRLLRRCRLRLVEELQVDQLWDALLSRELFRPHMIEDIQRAGSGSRRDQARQLIIDLETRGSQALPLFISCLEDTGQDMLASFLRTNRQAAKLSKPTLENLTPVVLRPEIRKPEVLRPETPRPVDIGSGGFGSESQTLDKVYQMKSKPRGYCLIINNHNFAKAREKVPKLHSIRDRNGTHLDAGALTTTFEELHFEIKPHDDCTVEQIYEILKIYQLMDHSNMDCFICCILSHGDKGIIYGTDGQEAPIYELTSQFTGLKCPSLAGKPKVFFIQACQGDNYQKGIPVETD
chain 2: LSSPQTRYIPDEADFLLGMATVNNCVSYRNPAEGTWYIQSLCQSLRERCPRGDDILTILTEVNYEVSNKDDKKNMGKQMPQPTFTLRKKLVFPSD
As a reminder, the Kd is a measure of binding affinity in units of concentration. A high value points to a looser complex. Molecule B1 showed a Kd of 125 nM.

These data come from PMC5123071 (2016).
